{"source": "paper PMC8557155", "about": "(Annals of Nuclear Medicine, 2021)", "key": {"[1]": {"parameters": "species or system human (Japanese patients)", "settings": "in vivo", "protocol": "Image processing and radioactivity quantification were performed by a nuclear medicine expert at site, and dosimetry calculation was performed by the sponsor of the study. All images were taken using the Symbia T-16 SPECT/CT scanner (Siemens). The dual-headed gamma camera was equipped with a 0.952-cm (0.375-in)-thick NaI crystal and a medium-energy low penetration collimator. An energy window of ± 10% was applied around the one dominant gamma ray energies of ^177Lu (208 keV). The matrix size was 256 × 1024. […] Radioactivity quantification was performed on patient images, and the geometric mean was calculated. Regions of interests (ROIs) were drawn around the kidneys, liver, spleen, other organs, and whole body on the planar images. Tumor tissue within the organs was excluded. The absorbed dose to each organ was estimated using the OLINDA/EXM 1.0 (Vanderbilt University), a software based on the Medical Internal Radiation Dose algorithm, which is widely used for established beta and gamma emitting radionuclides. The biological effective dose (BED) for the kidneys were estimated using the SAS software, version 9.4 (SAS Institute)."}, "[2]": {"settings": "in vivo; cited from earlier work"}, "[3]": {"settings": "in vivo; cited from earlier work", "description": "This study is the first clinical trial on ^177Lu-DOTATATE for unresectable NETs in Japan. At 29.6 GBq, the absorbed dose to the kidney and red bone marrow was 16.8 Gy and 0.722 Gy, respectively. These values were lower than the reported threshold dose for the kidney (23 Gy) and the red bone marrow (2 Gy). The calculated absorbed doses to the kidney, spleen, red bone marrow, and liver were 0.568, 0.559, 0.0244 and 0.247 mGy/MBq, respectively, in this study. We compared the calculated absorbed dose to each organ with previously published studies in Caucasian populations. In the prev ... || In this study, severe lymphopenia occurred in two (33.3%) cases, and other hematological toxicities were grade 1 or 2 leukocytopenia and thrombocytopenia. This finding was very similar to that reported in the Erasmus study. […] In the present study, lymphocyte, erythrocyte, and leukocyte counts gradua ...", "remark": "listed apart in the source"}, "[4]": {"settings": "in vivo; cited from earlier work", "description": "This study is the first clinical trial on ^177Lu-DOTATATE for unresectable NETs in Japan. At 29.6 GBq, the absorbed dose to the kidney and red bone marrow was 16.8 Gy and 0.722 Gy, respectively. These values were lower than the reported threshold dose for the kidney (23 Gy) and the red bone marrow (2 Gy). The calculated absorbed doses to the kidney, spleen, red bone marrow, and liver were 0.568, 0.559, 0.0244 and 0.247 mGy/MBq, respectively, in this study. We compared the calculated absorbed dose to each organ with previously published studies in Caucasian populations. […] In this study, the primary lesions were located in the pancreas, stomach, and rectum. Therefore, many patients underwent pancreatectomy and colectomy before enrollment in the study; diarrhea is likely to occur more in such patients compared to primary midgut cases because pancreatic enzyme deficiency o ...", "remark": "listed apart in the source"}}, "note": "Where two headings read alike, the source gives them in different places."}
{"molecule": "C[C@@H](O)[C@H](NC(=O)[C@@H]1CSSC[C@H](NC(=O)[C@@H](Cc2ccccc2)NC(=O)CN2CCN(CC(=O)O)CCN(CC(=O)O)CCN(CC(=O)O)CC2)C(=O)N[C@@H](Cc2ccc(O)cc2)C(=O)N[C@H](Cc2c[nH]c3ccccc23)C(=O)N[C@@H](CCCCN)C(=O)N[C@@H]([C@@H](C)O)C(=O)N1)C(=O)O", "note": "[177Lu-DOTATATE, ^177Lu-DOTA^0-Tyr^3-octreotate, metal not drawn]", "values": [{"measurement": "BED for the kidneys for 7.4 GBq, max", "setting": "[1]", "result": 5.38, "unit": "Gy/7.4 GBq"}, {"measurement": "BED for the kidneys for 7.4 GBq, mean", "setting": "[1]", "result": 4.25, "unit": "Gy/7.4 GBq"}, {"measurement": "BED for the kidneys for 7.4 GBq, min", "setting": "[1]", "result": 3.04, "unit": "Gy/7.4 GBq"}, {"measurement": "BED for the kidneys for 29.6 GBq, max", "setting": "[1]", "result": 21.5, "unit": "Gy/29.6 GBq"}, {"measurement": "BED for the kidneys for 29.6 GBq, mean", "setting": "[1]", "result": 17.0, "unit": "Gy/29.6 GBq"}, {"measurement": "BED for the kidneys for 29.6 GBq, median", "setting": "[1]", "result": 17.2, "unit": "Gy/29.6 GBq"}, {"measurement": "BED for the kidneys for 29.6 GBq, min", "setting": "[1]", "result": 12.2, "unit": "Gy/29.6 GBq"}, {"measurement": "BED for the kidneys, max", "setting": "[1]", "result": 0.727, "unit": "mGy/MBq"}, {"measurement": "BED for the kidneys, mean", "setting": "[1]", "result": 0.574, "unit": "mGy/MBq"}, {"measurement": "BED for the kidneys, median", "setting": "[1]", "result": 0.580, "unit": "mGy/MBq"}, {"measurement": "BED for the kidneys, min", "setting": "[1]", "result": 0.411, "unit": "mGy/MBq"}, {"measurement": "Effective radioactivity in the kidney at 1 h", "setting": "[1]", "result": "2.39 ± 0.535", "unit": "%"}, {"measurement": "Effective radioactivity in the liver at 1 h", "setting": "[1]", "result": "4.97 ± 2.01", "unit": "%"}, {"measurement": "Effective radioactivity in the spleen at 1 h", "setting": "[1]", "result": "0.812 ± 0.405", "unit": "%"}, {"measurement": "Fraction of the effective radioactivity retained in the whole body at 1 h", "setting": "[1]", "result": "71.4 ± 4.9", "unit": "%"}, {"measurement": "Fraction of the effective radioactivity retained in the whole body at 4 h", "setting": "[1]", "result": "39.5 ± 5.7", "unit": "%"}, {"measurement": "Fraction of the effective radioactivity retained in the whole body at 24 h", "setting": "[1]", "result": "16.0 ± 3.5", "unit": "%"}, {"measurement": "Fraction of the effective radioactivity retained in the whole body at Day 6", "setting": "[1]", "result": "5.8 ± 1.3", "unit": "%"}, {"measurement": "Absorbed dose to the spleen", "setting": "[2]", "result": 0.645, "unit": "mGy/MBq"}, {"measurement": "Severe lymphopenia at the follow-up visit after 3 month final treatment", "setting": "[3]", "result": 25.8, "unit": "%"}, {"measurement": "Severe lymphopenia at the follow-up visit after 30 months final treatment", "setting": "[3]", "result": 5.6, "unit": "%"}, {"measurement": "Severe lymphopenia, frequency", "setting": "[3]", "result": 50.0, "unit": "%"}, {"measurement": "Severe renal toxicities, frequency", "setting": "[3]", "result": 1, "unit": "%"}, {"measurement": "Diarrhea, frequency", "setting": "[4]", "result": 28.8, "unit": "%"}, {"measurement": "Severe renal toxicities, frequency", "setting": "[4]", "result": 0.9, "unit": "%"}]}
